Article PMC8643664

The binders below were run against TRF2 (45–244)-LacI (assay: lacO-LacI protein tethering assay).

Row | co-localization frequency [%] | Binder
1 | 46 | FLAG-ORC1 (325–511) (domain or fragment) SKTIDIREERTLTPISGGQRSSVVPSVILKPENIKKRDAKEAKAQNEATSTPHRIRRKSSVLTMNRIRQQLRFLGNSKSDQEEKEILPAAEISDSSSDEEEASTPPLPRRAPRTVSRNLRSSLKSSLHTLTKVPKKSLKPRTPRCAAPQIRSRSLAAQEPASVLEEARLRLHVSAVPESLPCREQEF
2 | 90 | FLAG-ORC1 (244–511) (domain or fragment) NPQMSQQTSCASLDSPGRIKRKVAFSEITSPSKRSQPDKLQTLSPALKAPEKTRETGLSYTEDDKKASPEHRIILRTRIAASKTIDIREERTLTPISGGQRSSVVPSVILKPENIKKRDAKEAKAQNEATSTPHRIRRKSSVLTMNRIRQQLRFLGNSKSDQEEKEILPAAEISDSSSDEEEASTPPLPRRAPRTVSRNLRSSLKSSLHTLTKVPKKSLKPRTPRCAAPQIRSRSLAAQEPASVLEEARLRLHVSAVPESLPCREQEF
3 | 73 | FLAG-ORC1 (2–511) (domain or fragment) AHYPTRLKTRKTYSWVGRPLLDRKLHYQTYREMCVKTEGCSTEIHIQIGQFVLIEGDDDENPYVAKLLELFEDDSDPPPKKRARVQWFVRFCEVPACKRHLLGRKPGAQEIFWYDYPACDSNINAETIIGLVRVIPLAPKDVVPTNLKNEKTLFVKLSWNEKKFRPLSSELFAELNKPQESAAKCQKPVRAKSKSAESPSWTPAEHVAKRIESRHSASKSRQTPTHPLTPRARKRLELGNLGNPQMSQQTSCASLDSPGRIKRKVAFSEITSPSKRSQPDKLQTLSPALKAPEKTRETGLSYTEDDKKASPEHRIILRTRIAASKTIDIREERTLTPISGGQRSSVVPSVILKPENIKKRDAKEAKAQNEATSTPHRIRRKSSVLTMNRIRQQLRFLGNSKSDQEEKEILPAAEISDSSSDEEEASTPPLPRRAPRTVSRNLRSSLKSSLHTLTKVPKKSLKPRTPRCAAPQIRSRSLAAQEPASVLEEARLRLHVSAVPESLPCREQEF
4 | 26 | FLAG-ORC1 (full-length) (natural protein) MAHYPTRLKTRKTYSWVGRPLLDRKLHYQTYREMCVKTEGCSTEIHIQIGQFVLIEGDDDENPYVAKLLELFEDDSDPPPKKRARVQWFVRFCEVPACKRHLLGRKPGAQEIFWYDYPACDSNINAETIIGLVRVIPLAPKDVVPTNLKNEKTLFVKLSWNEKKFRPLSSELFAELNKPQESAAKCQKPVRAKSKSAESPSWTPAEHVAKRIESRHSASKSRQTPTHPLTPRARKRLELGNLGNPQMSQQTSCASLDSPGRIKRKVAFSEITSPSKRSQPDKLQTLSPALKAPEKTRETGLSYTEDDKKASPEHRIILRTRIAASKTIDIREERTLTPISGGQRSSVVPSVILKPENIKKRDAKEAKAQNEATSTPHRIRRKSSVLTMNRIRQQLRFLGNSKSDQEEKEILPAAEISDSSSDEEEASTPPLPRRAPRTVSRNLRSSLKSSLHTLTKVPKKSLKPRTPRCAAPQIRSRSLAAQEPASVLEEARLRLHVSAVPESLPCREQEFQDIYNFVESKLLDHTGGCMYISGVPGTGKTATVHEVIRCLQQAAQANDVPPFQYIEVNGMKLTEPHQVYVQILQKLTGQKATANHAAELLAKQFCTRGSPQETTVLLVDELDLLWTHKQDIMYNLFDWPTHKEARLVVLAIANTMDLPERIMMNRVSSRLGLTRMCFQPYTYSQLQQILRSRLKHLKAFEDDAIQLVARKVAALSGDARRCLDICRRATEICEFSQQKPDSPGLVTIAHSMEAVDEMFSSSYITAIKNSSVLEQSFLRAILAEFRRSGLEEATFQQIYSQHVALCRMEGLPYPTMSETMAVCSHLGSCRLLLVEPSRNDLLLRVRLNVSQDDVLYALKDE
